Values belong to the binder of their own block, whether it stands above or below them.
Tests used:
[1] = target: T1, human CD38 on cells (CHO-CD38 cells, Daudi-luc cells, fresh multiple myeloma tumor cells) (human, UniProt P28907 1-300); test: cell-based or functional assay
[2] = target: T1, human CD38 on cells (CHO-CD38 cells, …); test: cell-based or functional assay; remark: listed apart in the source
[3] = target: His-CD38 (His-tagged extracellular domain of human CD38) (human, UniProt P28907 43-300); test: cell-based or functional assay
[4] = target: T1, human CD38 on cells (CHO-CD38 cells, …); test: cell-based or functional assay; remark: listed apart in the source
[5] = target: T1, human CD38 on cells (CHO-CD38 cells, …); test: cell-based or functional assay; remark: listed apart in the source
[6] = target: T1, human CD38 on cells (CHO-CD38 cells, …); test: flow cytometry on fresh MM tumor cells, FITC-labelled antibody
[7] = target: T1, human CD38 on cells (CHO-CD38 cells, …); test: flow cytometry on CHO-CD38 cells, anti-human IgG-FITC detection
[8] = target: T1, human CD38 on cells (CHO-CD38 cells, …); test: flow cytometry on Daudi-luc cells, anti-human IgG-FITC detection
[9] = target: T2, HA-CD38 (HA-tagged extracellular domain of human CD38, wild type) (human, UniProt P28907 43-300); test: SPR (Biacore 3000), antibody immobilized on CM-5 chip, HA-CD38 flowed over, 25° C., mean of 3 ± SD
T2 construct: also called HA-tagged CD38; wt human CD38; not shown: HA-tag introduced by the forward PCR primer, after signal peptide SPHMM

[10] = target: T3, cynomolgus monkey CD38 (on lymphoid tissue, lymphocytes and monocytes) (cynomolgus monkey, UniProt Q5VAN0 1-301); test: flow cytometry on cynomolgus lymphocytes, detection with FITC-labeled rabbit anti-human IgG (Example 11)
T3 construct: whole, on cells; also called cynomolgus CD38

[11] = target: T3, cynomolgus monkey CD38 (on lymphoid …); test: immunohistochemistry on frozen cynomolgus tissue sections
[12] = target: T1, human CD38 on cells (CHO-CD38 cells, …); test: flow cytometry on CHO-CD38 cells, detection with rabbit anti-human IgG-FITC (Example 4)

EC50, ADCC of Daudi-luc cells (51Cr release) [1]: 0.009 mg/L | EC50, ADCC of fresh MM tumor cells (51Cr release) [1]: 0.027 mg/L | EC50, CDC of CD38-CHO cells (PI-positive cells) [2]: 3.14 mg/L | EC50, CDC of Daudi-luc cells (PI-positive cells) [2]: > 90 mg/L | cGDPribose production (% of NGD control), 0.03 µg/ml antibody [3]: 107 % of NGD control | cGDPribose production (% of NGD control), 0.3 µg/ml antibody [3]: 107 % of NGD control | cGDPribose production (% of NGD control), 3 µg/ml antibody [3]: 100 % of NGD control | cGDPribose production (% of NGD control), 30 µg/ml antibody [3]: 99 % of NGD control | Log EC50 of lysis (table captioned CDC; the text ties log EC50 values to ADCC of Daudi cells) [4]: 1.17 | EC50 of lysis of CHO-CD38 cells (table captioned ADCC; the text ties these values to CDC) [5]: 4.5 mg/L | EC50 [6]: 0.56 mg/L | EC50 [7]: 0.54 mg/L | EC50 [8]: 0.26 mg/L | Ka [9]: 1.14e+09 M⁻¹ | Kd [9]: 0.885 nM | binding result [10]: binds
B1: -003 (antibody, human IgG1, V domains shown)
VH: not shown
VL: DIQMTQSPSSLSASVGDRVTITCRASQGISSWLAWYQQKPEKAPKSLIYAASSLQSGVPSRFSGSGSGTDFTLTISSLQPEDFATYYCQQYNSYPRTFGQGTKVEIK
notes: Human monoclonal IgG1 antibody; The recombinant form was cloned into pConG1f0.4 (human IgG1 constant region) and pConKappa0.4 (kappa constant region); FITC-labelled in some assays; also called antibody -003; HuMab -003

EC50, ADCC of Daudi-luc cells (51Cr release) [1]: 0.0097 mg/L | EC50, ADCC of fresh MM tumor cells (51Cr release) [1]: 0.056 mg/L | EC50, CDC of CD38-CHO cells (PI-positive cells) [2]: 0.24 mg/L | EC50, CDC of Daudi-luc cells (PI-positive cells) [2]: > 90 mg/L | cGDPribose production (% of NGD control), 0.03 µg/ml antibody [3]: 105 % of NGD control | cGDPribose production (% of NGD control), 0.3 µg/ml antibody [3]: 104 % of NGD control | cGDPribose production (% of NGD control), 3 µg/ml antibody [3]: 100 % of NGD control | cGDPribose production (% of NGD control), 30 µg/ml antibody [3]: 99 % of NGD control | binding result [11]: binds | EC50 [6]: 0.02 mg/L | EC50 [7]: 0.08 mg/L | EC50 [8]: 0.05 mg/L | EC50 (read off the curve) [12]: ~0.2 mg/L
B2: -024 (antibody, human IgG1, V domains shown)
VH: EVQLVQSGAEVKKPGESLKISCKGSGYSFSNYWIGWVRQMPGKGLEWMGIIYPHDSDARYSPSFQGQVTFSADKSISTAYLQWSSLKASDTAMYYCARHVGWGSRYWYFDLWGRGTLVTVSS
VL: EIVLTQSPATLSLSPGERATLSCRASQSVSSYLAWYQQKPGQAPGLLIYDASNRASGIPARFSGSGSGTDFTLTISSLEPEDFAVYYCQQRSNWPLTFGGGTKVEIK
notes: Human monoclonal IgG1 antibody; The recombinant form was cloned into pConG1f0.4 (human IgG1 constant region) and pConKappa0.4 (kappa constant region); also called antibody -024

cGDPribose production (% of NGD control), 0.03 µg/ml antibody [3]: 102 % of NGD control | cGDPribose production (% of NGD control), 0.3 µg/ml antibody [3]: 98 % of NGD control | cGDPribose production (% of NGD control), 3 µg/ml antibody [3]: 66 % of NGD control | cGDPribose production (% of NGD control), 30 µg/ml antibody [3]: 68 % of NGD control
B3: -005 (antibody, human IgG1, V domains shown)
VH: EVQLLESGGGLVQPGGSLRLSCAVSGFTFNSFAMSWVRQAPGKGLEWVSAISGSGGGTYYADSVKGRFTISRDNSKNTLYLQMNSLRAEDTAVYFCAKDKILWFGEPVFDYWGQGTLVTVSS
VL: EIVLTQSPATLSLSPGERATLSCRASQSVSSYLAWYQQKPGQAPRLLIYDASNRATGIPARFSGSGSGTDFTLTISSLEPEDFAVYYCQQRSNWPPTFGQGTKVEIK

Source: patent US20160130362A1 (Genmab, published 2016)
